Assay: label from the status in PepcDB records
For “TTKKRVFHFGKGKSEGNKTMKELLGGKGANLAEMASIGLSVPPGFTVSTEACQQYQDAGCALPAGLWAEIVDGLQWVEEYMGATLGDPQRPLLLSVRSGAAVSMPGMMDTVLNLGLNDEVAAGLAAKSGERFAYDSFRRFLDMFGNVVMDIPRSLFEEKLEHMKESKGLKNDTDLTASDLKELVGQYKEVYLSAKGEPFPSDPKKQLELAVLAVFNSWESPRAKKYRSINQITGLRGTAVNVQCMVFGNMGNTSGTGVLFTRNPNTGEKKLYGEFLVNAQGEDVVAGIRTPEDLDAMKNLMPQAYDELVENCNILESHYKEMQDIEFTVQENRLWMLQCRTGKRTGKSAVKIAVDMVNEGLVEPRSAIKMVEPGHLDQLLHPQFENPSAYKDQVIATGLPASPGAAVGQVVFTAEDAEAWHSQGKAAILVRAETSPEDVGGMHAAVGILTERGGMTSHAAVVARGWGKCCVSGCSGIRVNDAEKLVTIGGHVLREGEWLSLNGSTGEVILGKQPLSPPALSGDLGTFMAWVDDVRKLKVLANADTPDDALTARNNGAQGIGLCRTEHMFFASDERIKAVRQMIMAPTLELRQQALDRLLPYQRSDFEGIFRAMDGLPVTIRLLDPPLHEFLPEGNIEDIVSELCAETGANQEDALARIEKLSEVNPMLGFRGCRLGISYPELTEMQARAIFEAAIAMTNQGVQVFPEIMVPLVGTPQELGHQVTLIRQVAEKVFANVGKTIGYKVGTMIEIPRAALVADEIAEQAEFFSFGTNDLTQMTFGYSRDDVGKFIPVYLAQGILQHDPFEVLDQRGVGELVKFATERGRKARPNLKVGICGEHGGEPSSVAFFAKAGLDYVSCSPFRVPIARLAAAQVLV”, the protein production was “not failed”. For “TVSQLRSRITRFALAGRGMRETVTWSFISEKQALAFGGGQAQLKLVNPISADMSVMRPSLLPGLLVAAQRNADRGFPDFALFEVSNIYEDDTPDKQHRVAGGIRRGTEQFGGAGRFWNGNARAVDVFDAKADALAVLEACGLESGKVQIEVGAPDWYHPGRSGVIKLGSKIILGFFGVFHPATLEKLDISGPLCGFEIFLDRIP”, the protein production was “failed”. With “VACKPKEKPSSATSLTDDALMDTVQRRTFNYFWDAAEPNSGLARERYHMDGEYPAGGPEIVTSGGSGFGIMAILAGIDRGYVSREEGLRRMEKIVGFLEKADRFKGAYPHWWNGETGHVQPFGQKDNGGDLVETAFLMQGLLAVHQYYAEGSAEEKKLAGRIDKLWREVDWNWYRHGGQNVLYWHWSPEYGWEMNFPVHGYNECLIMYILAAASPTHGVPAAVYHEGWAQNGAIVSPHKVEGIELHLRYQGGEAGPLFWAQYSFLGLDPVGLKDEYCPSYFNEMRNLTLVNREYCIRNPKHYKGYGPDCWGLTASYSVDGYAAHGPLERDDRGVISPTAALSSIVYTPDQSLQVMHHLYEMGDKVFGPYGFYDAFSETADWYPKRYLAIDQGPIAVMIENYRTGLLWKLFMSHPDVQNGLKKLGFNVKK” the protein production was “not failed”. With “VADTDGHYRVRAITEISSFNETLGATFSDKEFDTIGGLVINKFGRLPKNGESITIEGFNFTVTRADSRRLHLLKVERIEPGVVEDADSHDSV” the protein production was “not failed”. With “VAKMRFIDIGANLLDEMYTGQYNDKPYHPPDLSAVLERAWAAGLEKLMITAGSLKEARAALELAKTDERLYCTVGCHPTRCKEFEDHPGGPEAYLQELLEVLKEGQALGKVVAVGECGLVATDYERLHFCDADTQKKYFEAQFRLAKESGLPMFLHLRAAADDFLDITGRHLGDFPRGGVVHSFDGTAEEAARVLAVPQLAIGINGCSLKTDDNLAVVGGLPLERIMLETDCPWCEIRPTHAGRKHVSAEALAGVTGAKDRKKFMPGCQVKSRNEPANIRQVLEVVAGVKGRTDLEAVADVIFGNTERMFFPTA” the protein production was “not failed”. With “VAPLGLSVPSDVELPPTAKMHAIIERTASFVCRQGAQFEIMLKAKQARNSQFDFLRFDHYLNPYYKFIQKAMKEGRYTVLAENKSDEKKKSGVS” the protein production was “not failed”. For “VATLYNDLKNKQTSVVEPKKPLPETWKNMHPCMVLNYMRPQCTFIVSGGTGTNQNNTFSMSVCVDNCEFNAEGPSKKAARYKLSALVCNKLFGTDYPQK”, the protein production was “failed”. For “VATPRGRLRVASPVLFSQLAMGRIGAGFYAAYPEVIIEVTAEDRLVDLVEEQFDVAIRINPDPDSRLVGRCFARDRLVVVAAPELPRPMPGAIRQTPAIVTSSFQPTHWKLDNGHLVLKPIPKLWFSS”, the protein production was “failed”. With “VEFSTLPAGPPAPPQDVTVQAGVTPATIRVSWRPPVLTPTGLSNGANVTGYGVYAKGQRVAEVIFPTADSTAVELVRLRSLEAKGVTVRTLSAQGESVDSAVAAVPPELLVPPTPHP” the protein production was “not failed”. In the case of “VEGFKVMRDGIKVASDETLLTPRFYTTDFDEMERLFSLELNKNMDMEEFEAMLNEFKLDYNQRHFVRNETFKEAAEKIQGPTRKIFIEFLERSCTAEFSGFLLYKELGRRLKATNPVVAEIFTLMSRDEARHAGFLNKAMSDFNLALDLGFLTKNRKYTFFKPKFIFYATYLSEKIGYWRYISIYRHLQRNPDNQLYPLFEYFENWCQDENRHGDFFTAVLKARPEMVNDWAAKLWSRFFCLSVYITMYLNDHQRDAFYSSLGLNTTQFNQHVIIETNKSTERIFPAVPDVENPEFFRRMDLLVKYNAQLVNIGSMNLPSPIKAIMKAPILERMVAEVFQVFIMTPKESGSYDLDANKTALVY”, the protein production is reported as “not failed”. With “VENLKAQALCSWTAKKDNHLNFSKHDIITVLEQQENWWFGEVHGGRGWFPKSYVKIIPGSE” the protein production was “not failed”. For “VEVIRARRLLDGQASTTGYFDNIEHCIDEEFGQCSITSNDKLLLVGSGAYPMTLIQVAKETGASVIGIDIDPQAVDLGRRIVNVLAPNEDITITDQKVSELKDIKDVTHIIFSSTIPLKYSILEELYDLTNENVVVAM”, the protein production was “failed”. With “VFHRFNEPGSRSGYSLYVPEYYDPDREWPLVMALHGGSGHGRLFLWSWLRDARARGAIVVAPTATGRTWALMGEDVDSPNLARILDEVRGHWRIDPSRLLLTGLSDGGTFCYVSGLTSDSPFTHLAPIAASFHPLLAGAADSARLRGLPIQIVHGRHDWMFPVEVARQAHEALVSAGADVSYREIADLSHSYPREANVALLDWL” the protein production was “failed”. In the case of “VGFAPELYCGLENCYDVLEVNREEFDKQKLAKAYRALARKHHPDRVKNKEEKLLAEERFRVIATAYETLKDDEAKTNYDYYLDHPDQRFYNYYQYYRLRAAPKVDL”, the protein production is reported as “not failed”. For “VGKPKMDVDLLQVDADLKKEIFDAYYNTMKTAVMTEEKLAREVEIDKVKDTVKEVYAEKFSEHEEEAQLLKEVKQIAEDLEKDVVRELITIDKIRPDGRKLDEIRH”, the protein production was “not failed”. With “VIGTWDCDTCLVQNKPEAIKCVACETPKPGTCVKRALTLT” the protein production was “not failed”. For “VKRAVQKTSDLIVLGLPWKTTEQDLKEYFSTFGEVLMVQVKKDLKTGHSKGFGFVRFTEYETQVKVMSQRHMIDGRWCDCKLPNSKQSQD”, the protein production was “not failed”. In the case of “VLIIPGGGYRRIVYEREGLDVGRWIAGQGYTAFILSYRMPSVNGYYSFADAKNALNFISYWAGMSERTFKSVGCMGFSAGGHLAGYITHLHYEEETSVRPDWMALIYPVISLDRSIAHQGCRKRLLDAGESEYSASLENSVTEYMPPVFIVHATDDKDVPVIHSLRYFNSIRDKGHHAEAHFFDKGGHGFGVSGKNGYPIEKWQSLLLEWLAEH”, the protein production is reported as “failed”. With “VMRLVTLRSHDQYNTTIYAMDDRYRGVFGRRDVLFMNEQDMAAQGLEHGDRVDIHTALPGSALTLEDITVVAYGIAPGTVGAYYPEANVLVPLNYLDEESGTPSYKSVPVRLTLRSKEIRPLVGGR” the protein production was “not failed”. In the case of “VNPLLDSLQPYPFEKLRALFKDVTPNAGLAHISFGIGEPKHPTPALIRDAVVASLGGLSAYPATSGSPALRESIAKWVTQRYNLPPVDPATQVLPVSGSREALFSLAQTVLDPQKNAGGEPAIVLCPNPFYQIYEGAAILAGAQPYFVNSDPARNFACDYSAVPAEIWARTQLLYVCSPGNPTGAVLTLDDWRELFALSDRYGFVIASDECYSEIYFDEAKPPLGGLEAAHKLGRGFERLVMLSSLSKRSNVPGMRSGFVAGDAAILKDFLLYRTYHGAALSTVFQNASIAAWNDEAHVRENRAKYLQKFSTVTPMLAEVLDVRLPDAAFYLWADVSRTGLTDTVFAQRLYADYNVTVLPGSFLARTAHGVNPGRNFVRMALVADVDECTQGAQRIVDFCRALAG”, the protein production is reported as “not failed”. In the case of “VPSLATAIGSSGDRPAALAELIGIIQNDGIRLPPVRIDSLHFAADTPYDTELIINPELGQRVLPSEVATAMREALSQVVDGGTAKRVQGTFKMQDGSVLAMGGKTGTGDNRIESIGAGGRILSSRAINRTATFVFYIGDNHFGALTAFVPGRAAEGFRFTSALPVQVLKGMAPILTPYLENHGQAMCNAPLADPPTGA”, the protein production is reported as “failed”. For “VRGFLIVGNKAFTQPFSLNDLPGAGRMDVLCRCTSQALFISHGIRRDVEVYLLLLGPPSPPKSILIKGDEVRRMSPDERNVAGHIKKALAVECGKSWKKVHSGVYVSRKGLEELIEELSEKYSIIYLKEDGVDISNAQLPPNPLFVIGDHEGLTEEQEKVVERYAALKLSLSPLSLLAEQCVVIAHHHLDRLQF”, the protein production was “not failed”. For “VRIVLVGSGNLATQTALALSEAASPPVQVWSRNAEHAERLASMLPGATATDRTEELLCDAELYLLAVSDHALESVAATLPPTSGIWAHTAGSMPMDTLRPYHAQIGVFYPLQTFSRERRVDYSSIPIYIEGNDESVVRLLESVARLISRNVLRCT”, the protein production was “failed”. With “VRTLWISDVHLGTRDCQAEHLSAFLKRYQADKVYLVGDIIDGWKLRGGMYWPQAHTNVIRRLLTMSKRGTEVIYVTGNHDEFLRRYSKLILGNIQLVDEAEHVTADGRRFLVIHGDQFDVITRYHRWLAFLGDSAYEFTLTLNRWLNHWRAKYGYGYWSLSAYLKHKVKSAVNFISDFEEAIAHECVKRGLDGVVCGHIHHAEIRQVGGVEYLNCGDWVESCTALIEHLDGNIELFRLA” the protein production was “failed”. In the case of “VSEEEIRMLVAESHEAGVIDAHERDMMNRVMRLGDRTADSLMTPRNRIAWLDANAEPERNLHVMREHEFSRYPVYRGSDQDIAGVLEVKSLVTRMDGHGAQLFQNLRDTLFVSESTHAMKLLEIFREEQQSMALVVDEYGEIRGLVTISDLMGAVVGRLQSVENTDD”, the protein production is reported as “failed”. For “VTSDNAAFEGTFKEMFRRHAAGVAIITVNYNGTPYGFTATSVASLSAQPPRFTFNMARSSSSWPAIANTTHIGVHMLGLDNQELADRFARTKNRFEGDHWELGPYEVPILKDVAGWLIGKIQMRLSFENNAVVVVEVVEGQVGEDGTPLLYHSGAYSQPVPLDYEI”, the protein production was “not failed”. In the case of “VWAHYEEQPVEEVMPVLEEKERSASYKPVFVTEITDDLHFYVQDVETGTQLEKLMENMRNDIASHPPVEGSYAPRRGEFCIAKFVDGEWYRARVEKVESPAKIHVFYIDYGNREVLPSTRLGTLSPAFSTRVLPAQATEYAFAFIQVPQDDDARTDAVDSVVRDIQNTQCLLNVEHLSAGCPHVTLQFADSKGDVGLGLVKEGLVMVEVRKEKQFQKVITEYLNAQESAKSARLNLWRYGDFRADDADEFGYSR”, the protein production is reported as “failed”. In the case of “VWEFYMPTDVFFGEKILEKRGNIIDLLGKRALVVTGKSSSKKNGSLDDLKKLLDETEISYEIFDEVEENPSFDNVMKAVERYRNDSFDFVVGLGGGSPMDFAKAVAVLLKEKDLSVEDLYDREKVKHWLPVVEIPTTAGTGSEVTPYSILTDPEGNKRGCTLMFPVYAFLDPRYTYSMSDELTLSTGVDALSHAVEGYLSRKSTPPSDALAIEAMKIIHRNLPKAIEGNREARKKMFVASCLAGMVIAQTGTTLAHALGYPLTTEKGIKHGKATGMVLPFVMEVMKEEIPEKVDTVNHIFGGSLLKFLKELGLYEKVAVSSEELEKWVEKGSRAKHLKNTPGTFTPEKIRNIYREALGV”, the protein production is reported as “not failed”. With “VYGSEVESKIIEFTIVGADEIIAEKLGISVGDFVYKIIRLRIIHSIPTIMEHTWMPIAVIPGVEASVLEESIYSYIQNKLGLKVGTSVVRVKGIRPDDKEKQFMNLTNQDFLMRVEQVAYLTDGRTFEYSYADHLPETFEFETVITAKSYKEA” the protein production was “not failed”.
